Where a chain is given by its changes, count along the chain named.
T1: N-terminal fragment of human cardiac troponin T (HcTnT-N69) (human)
T1 construct: Recombinantly produced and purified; immobilised on microtiter plates in the ELISA; also the immunogen; also called N69 peptide; isolated (free, cleaved) HcTnT-N69 peptide
T1 peptide: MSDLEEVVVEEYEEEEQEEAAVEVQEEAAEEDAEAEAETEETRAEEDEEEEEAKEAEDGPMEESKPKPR

B1: mouse monoclonal antibody 2H3 (antibody, IgM, V domains shown)
VH: GGGLVQPKGSLKLSCAASGFTFNTYAMNWVRQAPGKGLEWVARIRSKSNNYATYYADSVKDRFTISRDDSQSMLYLQMNNLKTEDTAMYYCVRHDGVAWFAYWGQGTLVTVSA
VL: LSLPVSLGDQASISCRSSQSIVHSNGNTYLEWYLQKPGQSPKLLIYKVSNRFSGVPDRFSGSGSGTDFTLKISRVKAEDLGVYYCFQGSHVPPTFGAGTKLELKR
notes: Mouse hybridoma mAb, IgM kappa (VH3/VL5); also called mAb 2H3; Class V mAb
B2: mouse monoclonal antibody 2D9 (antibody, IgM, V domains shown)
VH: B1 VH
VL: B1 VL with R16K, E31K
notes: Mouse hybridoma mAb, IgM kappa (VH3/VL7); also called mAb 2D9; Class VII mAb
B3: mouse monoclonal antibody 3H5 (antibody, IgM, V domains shown)
VH: B1 VH
VL: B1 VL with K76E
notes: Mouse hybridoma mAb, IgM kappa (VH3/VL4); also called mAb 3H5; Class IV mAb
B4: mouse monoclonal antibody 4F5 (antibody, IgM, V domains shown)
VH: B1 VH
VL: B1 VL with R16K
notes: Mouse hybridoma mAb, IgM kappa (VH3/VL6); also called mAb 4F5; Class VI mAb
B5: mouse monoclonal antibody 1D6 (antibody, V domains shown)
VH: GPELVKPGASVKISCKTSGYTFTENTIHWVKQSHGKSLEWVGGINPNNGGTNYNQKFKGRAALTVDKSSSTAYMELRSLTSEDSAVYYCARSWDWFAYWGQGTLVTVSA
VL: LSLPVSLGDQASISCRSSQSLVHSNGNTYLHWYLQKPGQSPKLLVYKVSNRFSGVPDRFSGSGSGTDFTLKIIRVEAEDLGVYFCSQSTRIPFTFGSGTKLEMKR
notes: Mouse hybridoma mAb, IgG1 kappa (VH1/VL1); they appear to lack the first N-terminal residues; also called mAb 1D6; Class I mAb
B6: mouse monoclonal antibody 2A8 (antibody, V domains shown)
VH: B5 VH
VL: B5 VL
notes: Mouse hybridoma mAb, IgG1 kappa (VH1/VL1), separately isolated hybridoma with the same variable regions as 1D6; also called Class I mAb; anti-N69 mAb
B7: mouse monoclonal antibody 2C1 (antibody, V domains shown)
VH: B5 VH
VL: B5 VL
notes: as for B6
B8: mouse monoclonal antibody 2D11 (antibody, IgG1, V domains shown)
VH: B5 VH
VL: B5 VL with E76K
notes: Mouse hybridoma mAb, IgG1 kappa (VH1/VL2); also called mAb 2D11; Class II mAb
B9: mouse monoclonal antibody 1E11 (antibody, IgG3, V domains shown)
VH: GAELAKPGASVKMSCKASGYTFTTYWMHWVKQRPGQGLEWIGFINPSTGYTEYNQKFKDKATLTADKSSSTAYMQLSSLTSGDSAVYYCARKSFAYWGHGTLVTVSA
VL: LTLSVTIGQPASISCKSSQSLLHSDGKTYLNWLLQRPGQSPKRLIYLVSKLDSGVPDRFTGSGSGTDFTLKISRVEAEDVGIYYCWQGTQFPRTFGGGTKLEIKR
notes: Mouse hybridoma mAb, IgG3 kappa (VH2/VL3); also called mAb 1E11; Class III mAb

Experiments:
[1] = biological target: T1, N-terminal fragment of human cardiac …; test: assay not named in the sentence (ELISA titration per the Examples)
Procedure: (§1) Purified HcTnT-N69 (also called N69) having the amino acid sequences shown in SEQ ID NO:1 or intact human cTnT antigen was immobilized on microtiter plates. After washing and blocking the plastic surface with 1% BSA and 0.05% Tween-20, the immobilized antigen was incubated with serial dilutions of the anti-N69 mAbs. Following washes to remove the unbound antibody, the plates were further incubated with HRP-conjugated second antibody followed by washes and H₂O₂-ABTS substrate reaction. A₄₁₅ₙₘ curve for each assay well was recorded by an automated microplate reader.

[2] = biological target: T1, N-terminal fragment of human cardiac …; test: indirect ELISA titration, antigen immobilised on plate
Procedure: as §1

| Binder | binding result [1] | binding result [2] |
| --- | --- | --- |
| B1 | binds | – |
| B2 | binds | – |
| B3 | – | binds |
| B4 | binds | – |
| B5 | – | binds |
| B6 | – | binds |
| B7 | – | binds |
| B8 | – | binds |
| B9 | – | binds |

From patent US20180364256A1 (WAYNE STATE UNIVERSITY, published 2018)
